Results reported in publication PMC3093450.

Target: GST-Sec23p (yeast) (UniProt P15303)
Experiment: pull-down

Sequence of GST-Sec23p (yeast) (P15303 2-768): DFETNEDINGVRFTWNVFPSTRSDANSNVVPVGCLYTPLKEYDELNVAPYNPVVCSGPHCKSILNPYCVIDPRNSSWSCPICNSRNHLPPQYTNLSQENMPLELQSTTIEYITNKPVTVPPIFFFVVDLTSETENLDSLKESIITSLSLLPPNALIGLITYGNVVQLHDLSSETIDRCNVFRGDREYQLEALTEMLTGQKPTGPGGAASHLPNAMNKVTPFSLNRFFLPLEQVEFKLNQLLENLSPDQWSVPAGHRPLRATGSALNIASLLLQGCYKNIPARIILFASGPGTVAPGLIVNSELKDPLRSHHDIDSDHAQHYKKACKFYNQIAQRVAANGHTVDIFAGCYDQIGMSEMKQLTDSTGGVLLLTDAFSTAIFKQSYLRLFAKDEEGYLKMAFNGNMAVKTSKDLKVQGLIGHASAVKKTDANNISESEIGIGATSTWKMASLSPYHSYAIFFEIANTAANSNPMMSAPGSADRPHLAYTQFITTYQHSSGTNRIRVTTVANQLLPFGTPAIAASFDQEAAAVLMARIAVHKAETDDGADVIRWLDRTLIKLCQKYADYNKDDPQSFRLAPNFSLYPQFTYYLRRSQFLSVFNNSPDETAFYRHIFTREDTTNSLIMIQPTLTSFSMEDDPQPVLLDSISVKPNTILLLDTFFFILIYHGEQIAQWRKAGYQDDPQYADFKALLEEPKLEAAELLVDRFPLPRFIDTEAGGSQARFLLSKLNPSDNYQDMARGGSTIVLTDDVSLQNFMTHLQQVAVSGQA

Kd: 630 nM
Substance: TRAPPI complex (from UniProt P36149 1-193)
